This experiment addresses M2 protein of human Influenza A virus A/WSN/33 (H1N1), wild type (Influenza A virus A/WSN/33 (H1N1)). Briefly: co-IP.

B1: human DHHC20 fused at its C-terminus to a myc-tag (enzyme)
chain: TLWRCCQRVVGWVPVLFITFVVVWSYYAYVVELCVFTIFGNEENGKTVVYLVAFHLFFVMFVWSYWMTIFTSPASPSKEFYLSNSEKERYEKEFSQERQQEILRRAARALPIYTTSASKTIRYCEKCQLIKPDRAHHCSACDSCILKMDHHCPWVNNCVGFSNYKFFLLFLLYSLLYCLFVAATVLEYFIKFWTNELTDTRAKFHVLFLFFVSAMFFISVLSLFSYHCWLVGKNRTTIESFRAPTFSYGPDGNGFSLGCSKNWRQVFGDEKKYWLLPIFSSLGDGCSFPTRLVGM
In turn, B1 came in with a percent of total DHHC20-myc co-precipitated of 1%.

For the origin of these results see PMC10622425.
